The source of these data is publication PMC10140031.

pKd: −log10 of the molar value.

Assay [1] has as its target His-C3d-Avi, biotinylated (human). The experiment in a line: SPR; biotinylated His-C3d-Avi immobilised on Series S sensor chip CAP, BIAcore T200, 25 °C; 20 mM HEPES pH 7.5, 150 mM NaCl, 3 mM EDTA, 0.005% TWEEN-20; analytes ISG65 and ISG65 mutants 1.5-100 nM. (Surface plasmon resonance follows binding to a sensor surface in real time, without labels.)
For assay [2], the target named is His-ISG65_(18-363)-Avi, C-terminally biotinylated (T. b. gambiense). Description: SPR; biotinylated His-ISG65_(18-363)-Avi immobilised on Series S sensor chip CAP, BIAcore T200, 25 °C; 20 mM HEPES pH 7.5, 150 mM NaCl, 3 mM EDTA, 0.005% TWEEN-20; analytes C3d and C3d mutants (0.78-50 nM), native C3, C3b, C3MA, C3c.
The target in assay [3] is His-ISG65_(18-363) Glu302Ala (T. b. gambiense). The experiment in a line: SPR; His-ISG65_(18-363) covalently immobilised via amine coupling; C3a (8-0.25 µM) flown over at 30 µl/min, 100 s association, 300 s dissociation; regeneration 1 M NaCl.
The target of assay [4] is His-ISG65_(18-363) Lys97Ala (T. b. gambiense). The description is as above.
The target of assay [5] is His-ISG65_(18-363), extracellular domain of invariant surface glycoprotein 65 of T. b. gambiense (T. b. gambiense). The assay is described as above.
Assay [6] shares this target. Description: cross-linking; ISG65 and C3b mixed 2:1, 100x molar excess of DSA, 20 mM HEPES pH 7.5, 150 mM NaCl, room temperature 30 min; SDS-PAGE.
In assay [7] the target is His-C3d-Avi, biotinylated. Description: SPR.
For assay [8], the target named is native human complement C3 (human) (UniProt P01024).
The target in assay [9] is Alexa Fluor 594 labelled human C3b (human) (UniProt P01024). The experiment in a line: flow cytometry on cells; competition: recombinant ISG65 at 1.5-fold molar excess preincubated with AF594 labelled C3b for 10 min before addition to T. b. gambiense cells on ice. A general note: A flow cytometer gives signals particle by particle.
Alexa Fluor 594 labelled human C3b (human), sequence (P01024 23-667, chain 1 of 2): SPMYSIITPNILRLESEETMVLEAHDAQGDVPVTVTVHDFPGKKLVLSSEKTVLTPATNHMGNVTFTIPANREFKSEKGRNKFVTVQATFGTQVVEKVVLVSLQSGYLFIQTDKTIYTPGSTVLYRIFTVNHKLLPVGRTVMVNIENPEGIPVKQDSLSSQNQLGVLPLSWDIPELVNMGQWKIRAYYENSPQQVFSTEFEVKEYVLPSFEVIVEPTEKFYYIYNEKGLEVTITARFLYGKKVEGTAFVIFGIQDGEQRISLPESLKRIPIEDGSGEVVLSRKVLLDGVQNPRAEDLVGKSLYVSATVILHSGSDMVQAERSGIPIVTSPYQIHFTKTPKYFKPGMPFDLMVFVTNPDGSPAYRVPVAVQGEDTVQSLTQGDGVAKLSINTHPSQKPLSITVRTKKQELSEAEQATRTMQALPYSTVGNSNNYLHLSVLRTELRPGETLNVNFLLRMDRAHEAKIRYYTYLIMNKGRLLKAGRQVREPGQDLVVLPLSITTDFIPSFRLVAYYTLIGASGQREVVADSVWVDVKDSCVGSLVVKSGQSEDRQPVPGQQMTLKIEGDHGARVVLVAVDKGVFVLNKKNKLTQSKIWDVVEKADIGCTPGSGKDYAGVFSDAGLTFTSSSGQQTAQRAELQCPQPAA
Alexa Fluor 594 labelled human C3b (human), sequence (P01024 749-1663, chain 2 of 2): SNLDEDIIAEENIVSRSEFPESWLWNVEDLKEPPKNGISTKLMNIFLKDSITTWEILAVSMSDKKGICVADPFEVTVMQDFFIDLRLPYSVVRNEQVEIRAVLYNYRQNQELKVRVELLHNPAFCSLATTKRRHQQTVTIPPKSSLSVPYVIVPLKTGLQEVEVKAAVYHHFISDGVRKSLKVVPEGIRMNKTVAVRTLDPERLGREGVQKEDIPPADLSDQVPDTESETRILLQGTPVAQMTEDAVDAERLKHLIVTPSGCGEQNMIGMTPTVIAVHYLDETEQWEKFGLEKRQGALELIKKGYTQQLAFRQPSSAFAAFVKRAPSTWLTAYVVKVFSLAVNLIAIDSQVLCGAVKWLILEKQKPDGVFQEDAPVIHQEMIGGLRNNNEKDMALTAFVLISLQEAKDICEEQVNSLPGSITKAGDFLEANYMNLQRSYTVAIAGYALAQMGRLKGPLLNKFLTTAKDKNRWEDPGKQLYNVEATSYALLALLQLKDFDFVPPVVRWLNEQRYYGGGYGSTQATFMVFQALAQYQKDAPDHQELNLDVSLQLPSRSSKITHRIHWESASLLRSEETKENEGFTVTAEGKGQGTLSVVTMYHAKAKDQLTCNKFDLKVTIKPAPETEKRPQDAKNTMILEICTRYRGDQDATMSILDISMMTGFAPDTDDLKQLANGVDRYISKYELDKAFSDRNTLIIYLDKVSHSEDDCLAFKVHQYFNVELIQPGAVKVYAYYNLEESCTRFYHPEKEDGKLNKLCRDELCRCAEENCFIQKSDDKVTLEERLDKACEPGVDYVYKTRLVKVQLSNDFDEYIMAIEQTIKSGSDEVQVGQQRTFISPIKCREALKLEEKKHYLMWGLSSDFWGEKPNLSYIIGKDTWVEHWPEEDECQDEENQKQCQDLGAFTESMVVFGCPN

human complement C3a, sequence (P01024 672-748): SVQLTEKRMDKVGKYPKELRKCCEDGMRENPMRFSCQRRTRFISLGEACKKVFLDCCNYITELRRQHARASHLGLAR
native human complement C3 (human), sequence (P01024 23-667, chain 1 of 2): as the sequence (P01024 23-667, chain 1 of 2) above
native human complement C3 (human), sequence (P01024 672-1663, chain 2 of 2): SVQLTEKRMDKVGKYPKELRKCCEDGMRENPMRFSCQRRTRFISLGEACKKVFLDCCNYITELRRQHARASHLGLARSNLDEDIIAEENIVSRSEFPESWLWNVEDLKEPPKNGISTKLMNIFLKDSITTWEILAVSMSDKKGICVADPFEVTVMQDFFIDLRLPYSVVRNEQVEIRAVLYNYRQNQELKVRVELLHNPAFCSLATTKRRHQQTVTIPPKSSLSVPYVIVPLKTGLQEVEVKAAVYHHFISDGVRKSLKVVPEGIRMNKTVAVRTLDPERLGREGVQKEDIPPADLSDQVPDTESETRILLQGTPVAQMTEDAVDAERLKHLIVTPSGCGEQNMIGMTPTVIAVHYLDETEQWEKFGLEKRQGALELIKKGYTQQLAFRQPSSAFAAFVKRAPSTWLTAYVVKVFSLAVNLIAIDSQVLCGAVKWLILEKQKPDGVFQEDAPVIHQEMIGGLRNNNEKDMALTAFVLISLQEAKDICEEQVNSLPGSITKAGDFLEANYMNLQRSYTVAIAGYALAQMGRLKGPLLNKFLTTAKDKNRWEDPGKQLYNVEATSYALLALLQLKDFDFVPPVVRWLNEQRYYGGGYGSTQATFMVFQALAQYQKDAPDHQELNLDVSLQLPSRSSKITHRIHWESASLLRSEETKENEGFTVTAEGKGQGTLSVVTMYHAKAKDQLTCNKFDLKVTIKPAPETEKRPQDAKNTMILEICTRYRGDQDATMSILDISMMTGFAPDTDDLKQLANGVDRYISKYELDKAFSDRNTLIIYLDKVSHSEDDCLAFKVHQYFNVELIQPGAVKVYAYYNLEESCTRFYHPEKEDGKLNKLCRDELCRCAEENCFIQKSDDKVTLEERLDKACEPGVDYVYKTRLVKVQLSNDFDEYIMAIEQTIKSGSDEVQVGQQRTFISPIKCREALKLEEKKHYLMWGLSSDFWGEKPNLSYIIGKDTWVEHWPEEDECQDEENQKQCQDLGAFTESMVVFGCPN

On to “His-ISG65_(18-363) Trp211Ala (domain or fragment)”, for which the KD relative to wild type (so in the source) in [1] turned out to be 42%.

Substance His-C3d Arg1134Ala (domain or fragment) returned a KD relative to wild type (so in the source) in [2] of 30%.

Consider “human complement C3a (from UniProt P01024 672-748) (domain or fragment)”, for which the pKd (usually the Kd on a negative log10 scale, so that one unit is a factor of ten) was 4.11 in [3], 4.10 in assay [4] and 4.74 in assay [5].

The substance “C3MA, methylamine-treated human C3 (from UniProt P01024 23-667; P01024 672-1663) (natural protein)” showed a pKd in assay [2] of 7.74.

Regarding “His-C3d, recombinant human C3d (domain or fragment)”, the pKd in assay [2] is 8.15. As for “human complement C3b (from UniProt P01024 23-667; P01024 749-1663) (domain or fragment)”, the stoichiometry N (as a rule, the number of molecules, sites or subunits per partner or assembly) in assay [6] came out at 1. The substance also showed a pKd in [2] of 7.09. As for “His-ISG65_(18-363), extracellular domain of invariant surface glycoprotein 65 of T. b. gambiense T297A”, the percent of parent in [7] turned out to be 15%. “His-ISG65_(18-363), extracellular domain of invariant surface glycoprotein 65 of T. b. gambiense (domain or fragment)” displayed an AP50 haemolysis assay: lysis of rabbit erythrocytes in human serum after activation of the alternative pathway, soluble ISG65 7.5-0 µM in assay [8] of less than 90%. Further, the percent reduction of C3b surface binding to T. b. gambiense cells in [9] worked out at 60%.

For “His-ISG65_(18-363), extracellular domain of invariant surface glycoprotein 65 of T. b. gambiense Y70A”, the percent of parent in assay [7] worked out at 36%.

Take “native human complement C3 (from UniProt P01024 23-667; P01024 672-1663) (natural protein)”: the pKd in [2] is 6.89.
